Measured values published in the supplement of paper PMC9732359.
± gives the uncertainty stated by the source.

Test: protein stability index of a GFP-peptide fusion (yeast GPS) (PSI 1-4); higher = more stable; sorted into four equal gates, so the index is relative within each strain
Method in brief: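 Tiled 17-residue peptides from yeast proteins were fused downstream of GFP on a plasmid that also expresses Cherry, and the pooled library was carried in yeast. Mid-log cultures grown in leucine-free medium were sorted into four equal gates by GFP/Cherry fluorescence ratio. Plasmids from each gate were PCR-amplified and Illumina-sequenced, and reads were assigned to strains by barcodes. Each peptide's protein stability index is the sum, over gates, of the gate's read frequency multiplied by its gate number.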

| Sequence | protein stability index (doa10∆) | protein stability index (pdr5∆) | protein stability index (san1∆) | protein stability index (ubr1∆) |
| --- | --- | --- | --- | --- |
| GQSSSIQSSLMTNLTYF [YCS4] | 2.86 ± 0.095 | 2.74 ± 0.071 | 2.56 ± 0.086 | 2.95 ± 0.065 |
| KSTTPYVSALKRINKFL [POP7] | 2.04 ± 0.047 | 1.55 ± 0.036 | 2 ± 0.067 | 1.63 ± 0.034 |
| AQDEVFSLAFSPNRYWL [ASC1] | 2.78 ± 0.24 | 2.75 ± 0.17 | 2.54 ± 0.18 | 2.38 ± 0.19 |
| LSDIETAVNGIDTDLFG [YGL172W/NUP49] | 3.11 ± 0.079 | 3.16 ± 0.086 | 3.2 ± 0.062 | 3.19 ± 0.055 |
| STSLGIPDFRSSEGFYS [SIR2] | 1.85 ± 0.27 | 1.62 ± 0.089 | – | 3.36 ± 0.14 |
| HGYFLQDKEKIDNLKDT [ITC1] | 3.18 ± 0.072 | 3.41 ± 0.069 | 3.24 ± 0.057 | 3.42 ± 0.057 |
| PQVLINRDPVKHAEFDL [SIR2] | 2.39 ± 0.14 | 3.04 ± 0.093 | 3.08 ± 0.12 | 2.79 ± 0.1 |
| RNARAARAAKIAPRPLD [RPL13B] | 2.86 ± 0.12 | 3.11 ± 0.09 | 3.14 ± 0.074 | 2.45 ± 0.056 |
| NEKSQAEQEKAKNIISN [LRP1] | 2.59 ± 0.092 | 2.83 ± 0.12 | 2.86 ± 0.078 | 2.62 ± 0.17 |
| MSVDIDKKASMIISGSR [ASC1] | 2 ± 0.24 | 1.95 ± 0.12 | 1.71 ± 0.23 | 1.99 ± 0.074 |
| ALHYLVPFIIAAMVIMH [COB] | 1.73 ± 0.066 | 1.29 ± 0.061 | 1.61 ± 0.15 | 1.4 ± 0.055 |
| GGLGLNLQTADTVIIFD [SNF2] | 3.18 ± 0.12 | 3.22 ± 0.1 | 3.34 ± 0.13 | 3.38 ± 0.07 |
| PYLVANVVEVMDMNEIE [RPT5] | 2.86 ± 0.093 | 2.19 ± 0.063 | 1.91 ± 0.077 | 2.32 ± 0.069 |
| ATLYIPKALRFDRLVAG [FAS2] | 2.88 ± 0.22 | 1.23 ± 0.068 | – | 1.44 ± 0.09 |
| LLLITHHSWSQSDLEII [ARP9] | 2.36 ± 0.08 | 1.68 ± 0.048 | 1.76 ± 0.075 | 1.87 ± 0.068 |
| GNYSHLMEKNRIRKLTG [REC8] | 1.58 ± 0.067 | 2.04 ± 0.061 | 2.56 ± 0.1 | 1.9 ± 0.062 |
| NVAVDIINFGEIEQNTE [RPN10] | 3.23 ± 0.092 | 3.39 ± 0.075 | 3.27 ± 0.059 | 3.14 ± 0.066 |
| MAYFDENLNRNWRGREH [BRN1] | 3.25 ± 0.099 | 3.41 ± 0.16 | 2.99 ± 0.091 | 3.14 ± 0.095 |
| IESFVELGVSIYDFPGT [NUT2] | 2.83 ± 0.081 | 3.07 ± 0.095 | 2.53 ± 0.09 | 2.2 ± 0.038 |
| IANMVLPPEKIYSPLHS [SIR2] | 1.54 ± 0.035 | 1.99 ± 0.036 | 1.73 ± 0.05 | 1.67 ± 0.032 |

| Sequence | protein stability index (doa10∆) | protein stability index (pdr5∆) | protein stability index (san1∆) | protein stability index (ubr1∆) |
| --- | --- | --- | --- | --- |
| LFQVESAPKISSEIDRE [SIR4] | 2.35 ± 0.05 | 2.61 ± 0.062 | 2.37 ± 0.053 | 2.42 ± 0.045 |
| EGLIRLDNLTEDPNSAA [DIS3] | 3.23 ± 0.066 | 3.31 ± 0.061 | 3.229 ± 0.032 | 3.185 ± 0.031 |
| VKQVLLSVEIGVLTDIS [NUT1] | 1.16 ± 0.063 | 1.47 ± 0.056 | 1.37 ± 0.18 | 1.64 ± 0.066 |
| LLKLIEPYVAYGYPSYS [RPL7A] | 2.07 ± 0.05 | 2.22 ± 0.053 | 2.2 ± 0.056 | 2.07 ± 0.042 |
| IYDFPGTPEATKGMITN [NUT2] | 2.54 ± 0.11 | 2.54 ± 0.11 | 2.98 ± 0.15 | 3.3 ± 0.086 |
| TLTDILEDELYHTNPGH [RPN4] | 3.04 ± 0.055 | 3.25 ± 0.049 | 3.1 ± 0.064 | 3.21 ± 0.043 |
| LYAVSTFENTNNTEKND [SIR4] | 2.37 ± 0.072 | 2.4 ± 0.075 | 2.5 ± 0.083 | 2.38 ± 0.057 |
| TGGTRTKTPGPGGQAAL [RPS14A] | 3.24 ± 0.04 | 3.11 ± 0.036 | 3.05 ± 0.034 | 3.149 ± 0.028 |
| ANVEILAVEDKPSPIDS [CSL4] | 2.98 ± 0.095 | 2.97 ± 0.13 | 2.57 ± 0.15 | 3.12 ± 0.063 |
| DVKLLHSQFMKDLKDDS [YJL039C/NUP192] | 2.72 ± 0.075 | 2.85 ± 0.091 | 2.98 ± 0.077 | 2.72 ± 0.055 |
| NTLRMKHGTYDKLDDDG [RPB2] | 2.77 ± 0.077 | 2.83 ± 0.061 | 2.83 ± 0.063 | 2.89 ± 0.045 |
| PLLTKRKDLRDKLICSI [DIS3] | 2.55 ± 0.088 | 2.62 ± 0.071 | 2.31 ± 0.1 | 3.06 ± 0.13 |
| NSDHAKFTIEPGVLPVG [SNF2] | 2.23 ± 0.046 | 2.27 ± 0.054 | 2.32 ± 0.098 | 1.83 ± 0.046 |
| DSKGSLYSVKFAPAHLG [YGL100W/SEH1] | 2.66 ± 0.11 | 3.05 ± 0.13 | 2.59 ± 0.1 | 2.81 ± 0.062 |
| MQKPVPFVPVLDRRFEI [FAS1] | 1.98 ± 0.034 | 1.95 ± 0.03 | 1.82 ± 0.043 | 1.92 ± 0.028 |
| LGKGGAKRHRKILRDNI [HHF1] | 3.36 ± 0.26 | 3.21 ± 0.17 | 3.4 ± 0.19 | 2.99 ± 0.14 |
| RTYSKTYSTPKRPYESS [RPS9A] | 2.19 ± 0.055 | 2.23 ± 0.066 | 2.46 ± 0.053 | 2.53 ± 0.043 |
| IHSGVLSSIESDLKKRE [YMR153W/NUP53] | 3.07 ± 0.084 | 3.17 ± 0.073 | 3.1 ± 0.066 | 3.09 ± 0.074 |
| SPNPTLQPVIPGGAASK [SNF5] | 3.23 ± 0.093 | 3.24 ± 0.082 | 3.19 ± 0.058 | 2.88 ± 0.059 |
